B1: W23Y, O00095 (parent)
chain: MKFLQVLPALIPAALAQTSCDQWATFTGNGYTVSNNLWGASAGSGFGCVTAVSLSGGASWHADWQWSGGQNNVKSYQNSQIAIPQKRTVNSISSMPTTASWSYSGSNIRANVAYDLFTAANPNHVTYSGDYELMIWLGKYGDIGPIGSSQGTVNVGGQSWTLYYGYNGAMQVYSFVAQTNTTNYSGDVKNFFNYLRDNKGYNAAGQYVLSYQFGTEPFTGSGTLNVASWTASIN

Variants of: B1
Conditions: Hypocrea jecorina; pH 8; Thermal; CD; Bis-Tris propane ammonium acetate 0.05 M 0.05 M; reversible: No; structure 1H8V; whole UniProt chain shown

Row | Variant | Tm [°C] | change of melting temperature, mutant - wild type (higher = more stable) [°C]
1 | MKFLQVLPALIPAALAQTSCDQYATFTGNGYTVSNNLWGASAGSGFGCVTAVSLSGGASWHADWQWSGGQNNVKSYQNSQIAIPQKRTVNSISSMPTTASWSYSGSNIRANVAYDLFTAANPNHVTYSGDYELMIWLGKYGDIGPIGSSQGTVNVGGQSWTLYYGYNGAMQVYSFVAQTNTTNYSGDVKNFFNYLRDNKGYNAAGQYVLSYQFGTEPFTGSGTLNVASWTASIN [W23Y] | 53.4 | -1
2 | MKFLQVLPALIPAALAQTSCDQWATFSGNGYIVSNNLWGASAGSGFGCVTAVSLSGGASWHADWQWSGGQNNVKSYQNSQIAIPQKRTVNSISSMPTTASWSYSGSNIRANVAYDLFTAANPNHVTYSGDYELMIWLGKYGDIGPIGSSQGTVNVGGQSWTLYYGYNGAMQVYSFVAQTNTTNYSGDVKNFFNYLRDNKGYNAAGQYVLSYQFGTEPFTGSGTLNVASWTASIN [T27S T32I] | 55.5 | 1.1
3 | MKFLQVLPALIPAALAQTSCDQWATFTGNGYTVSNNLWGASAGSGFGCVTSVSLSGGASWHADWQWSGGQNNVKSYQNSQIAIPQKRTVNSISSMPTTASWSYSGSNIRANVAYDLFTAANPNHVTYSGDYELMIWLGKYGDIGPIGSSQGTVNVGGQSWTLYYGYNGAMQVYSFVAQTNTTNYSGDVKNFFNYLRDNKGYNAAGQYVLSYQFGTEPFTGSGTLNVASWTASIN [A51S] | 50.4 | -4
4 | MKFLQVLPALIPAALAQTSCDQWATFTGNGYTVSNNLWGASAGSGFGCVTVVSLSGGASWHADWQWSGGQNNVKSYQNSQIAIPQKRTVNSISSMPTTASWSYSGSNIRANVAYDLFTAANPNHVTYSGDYELMIWLGKYGDIGPIGSSQGTVNVGGQSWTLYYGYNGAMQVYSFVAQTNTTNYSGDVKNFFNYLRDNKGYNAAGQYVLSYQFGTEPFTGSGTLNVASWTASIN [A51V] | 62.1 | 7.7
5 | MKFLQVLPALIPAALAQTSCDQWATFTGNGYTVSNNLWGASAGSGFGCVTAVSLNGGASWHADWQWSGGQNNVKSYQNSQIAIPQKRTVNSISSMPTTASWSYSGSNIRANVAYDLFTAANPNHVTYSGDYELMIWLGKYGDIGPIGSSQGTVNVGGQSWTLYYGYNGAMQVYSFVAQTNTTNYSGDVKNFFNYLRDNKGYNAAGQYVLSYQFGTEPFTGSGTLNVASWTASIN [S55N] | 54.9 | 0.5
6 | MKFLQVLPALIPAALAQTSCDQWATFTGNGYTVSNNLWGASAGSGFGCVTAVSLSGAASWHADWQWSGGQNNVKSYQNSQIAIPQKRTVNSISSMPTTASWSYSGSNIRANVAYDLFTAANPNHVTYSGDYELMIWLGKYGDIGPIGSSQGTVNVGGQSWTLYYGYNGAMQVYSFVAQTNTTNYSGDVKNFFNYLRDNKGYNAAGQYVLSYQFGTEPFTGSGTLNVASWTASIN [G57A] | 56.9 | 2.5
7 | MKFLQVLPALIPAALAQTSCDQWATFTGNGYTVSNNLWGASAGSGFGCVTAVSLSGGASWHADWQWSGGQNNVKSYQNVQIAIPQKRTVNSISSMPTTASWSYSGSNIRANVAYDLFTAANPNHVTYSGDYELMIWLGKYGDIGPIGSSQGTVNVGGQSWTLYYGYNGAMQVYSFVAQTNTTNYSGDVKNFFNYLRDNKGYNAAGQYVLSYQFGTEPFTGSGTLNVASWTASIN [S79V] | 53.6 | -0.8
8 | MKFLQVLPALIPAALAQTSCDQWATFTGNGYTVSNNLWGASAGSGFGCVTAVSLSGGASWHADWQWSGGQNNVKSYQNSQINIPQKRTVNSISSMPTTASWSYSGSNIRANVAYDLFTAANPNHVTYSGDYELMIWLGKYGDIGPIGSSQGTVNVGGQSWTLYYGYNGAMQVYSFVAQTNTTNYSGDVKNFFNYLRDNKGYNAAGQYVLSYQFGTEPFTGSGTLNVASWTASIN [A82N] | 54.5 | 0.1
9 | MKFLQVLPALIPAALAQTSCDQWATFTGNGYTVSNNLWGASAGSGFGCVTAVSLSGGASWHADWQWSGGQNNVKSYQNSQIAIPQKRTVNSIGSMPTTASWSYSGSNIRANVAYDLFTAANPNHVTYSGDYELMIWLGKYGDIGPIGSSQGTVNVGGQSWTLYYGYNGAMQVYSFVAQTNTTNYSGDVKNFFNYLRDNKGYNAAGQYVLSYQFGTEPFTGSGTLNVASWTASIN [S93G] | 54.5 | 0.1
10 | MKFLQVLPALIPAALAQTSCDQWATFTGNGYTVSNNLWGASAGSGFGCVTAVSLSGGASWHADWQWSGGQNNVKSYQNSQIAIPQKRTVNSISSMPTTASWSYSGSDIRANVAYDLFTAANPNHVTYSGDYELMIWLGKYGDIGPIGSSQGTVNVGGQSWTLYYGYNGAMQVYSFVAQTNTTNYSGDVKNFFNYLRDNKGYNAAGQYVLSYQFGTEPFTGSGTLNVASWTASIN [N107D] | 54.9 | 0.5
11 | MKFLQVLPALIPAALAQTSCDQWATFTGNGYTVSNNLWGASAGSGFGCVTAVSLSGGASWHADWQWSGGQNNVKSYQNSQIAIPQKRTVNSISSMPTTASWSYSGSNIRANVAYDLFTAANPNHVTYSGDYELMIWLGKYGDIGPIGSSQGTVNVGGQTWTLYYGYNGAMQVYSFVAQTNTTNYSGDVKNFFNYLRDNKGYNAAGQYVLSYQFGTEPFTGSGTLNVASWTASIN [S159T] | 54.9 | 0.5
12 | MKFLQVLPALIPAALAQTSCDQWATFTGNGYTVSNNLWGASAGSGFGCVTAVSLSGGASWHADWQWSGGQNNVKSYQNSQIAIPQKRTVNSISSMPTTASWSYSGSNIRANVAYDLFTAANPNHVTYSGDYELMIWLGKYGDIGPIGSSQGTVNVGGQSWTLYYGYNGAMQVYSFVAQSNTTNYSGDVKNFFNYLRDNKGYNAAGQYVLSYQFGTEPFTGSGTLNVASWTASIN [T179S] | 54.7 | 0.3
13 | MKFLQVLPALIPAALAQTSCDQWATFTGNGYTVSNNLWGASAGSGFGCVTAVSLSGGASWHADWQWSGGQNNVKSYQNSQIAIPQKRTVNSISSMPTTASWSYSGSNIRANVAYDLFTAANPNHVTYSGDYELMIWLGKYGDIGPIGSSQGTVNVGGQSWTLYYGYNGAMQVYSFVAQTNTTSYSGDVKNFFNYLRDNKGYNAAGQYVLSYQFGTEPFTGSGTLNVASWTASIN [N183S] | 54.6 | 0.2
14 | MKFLQVLPALIPAALAQTSCDQWATFTGNGYTVSNNLWGASAGSGFGCVTAVSLSGGASWHADWQWSGGQNNVKSYQNSQIAIPQKRTVNSISSMPTTASWSYSGSNIRANVAYDLFTAANPNHVTYSGDYELMIWLGKYGDIGPIGSSQGTVNVGGQSWTLYYGYNGAMQVYSFVAQTNTTNYSGDVKNFFNYLRDNKGYNAGGQYVLSYQFGTEPFTGSGTLNVASWTASIN [A204G] | 54.9 | 0.5
